This is an account of results in patent publication US20190360025A1.

Test [1] has as its target tumor necrosis factor alpha (TNF-α), R&D Systems 210-TA-005 (UniProt P01375). The test is described as follows: c-PLA 1X probes, buffer; TNF-α 1.00E-08 M.
Test [2] has the same target. Kind of test: c-PLA 1X probes, buffer; TNF-α 5.00E-07 M.
Test [3] has the same target. Kind of test: c-PLA 10X probes, buffer; TNF-α 1.00E-09 M.
For test [4] the target is unchanged. Kind of test: c-PLA 10X probes, human plasma; TNF-α 1.00E-08 M.
For test [5] the target is unchanged. Kind of test: t-PLA 10X probes, human plasma; TNF-α 1.00E-09 M.
The target is the same in test [6]. The test is described as follows: t-PLA 10X probes, human plasma; TNF-α 1.00E-12 M.
Test [7] shares this target. Kind of test: t-PLA 10X probes, human plasma; TNF-α 1.00E-13 M.
Test [8] addresses vascular endothelial growth factor (VEGF), R&D Systems 293-VE-010 (human) (UniProt P15692). The test is described as follows: c-PLA with preamplification; VEGF 1.00E-12 M.
UniProt P15692, sequence (P15692 other isoform, or with tags, fused parts or gaps limits assumed): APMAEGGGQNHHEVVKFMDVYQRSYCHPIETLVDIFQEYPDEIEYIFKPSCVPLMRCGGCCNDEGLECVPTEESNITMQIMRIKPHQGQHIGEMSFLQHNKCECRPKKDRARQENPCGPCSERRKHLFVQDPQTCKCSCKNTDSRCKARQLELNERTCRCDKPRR
The target is the same in test [9]. Kind of test: c-PLA with preamplification; VEGF 1.00E-14 M.

UniProt P01375, sequence (P01375 77-233 limits assumed): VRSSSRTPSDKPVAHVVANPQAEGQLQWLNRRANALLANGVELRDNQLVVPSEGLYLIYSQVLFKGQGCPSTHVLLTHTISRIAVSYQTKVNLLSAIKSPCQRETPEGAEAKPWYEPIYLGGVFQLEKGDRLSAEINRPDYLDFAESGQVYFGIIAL

As for “affinity-purified polyclonal anti-TNF-α antibody (R&D Systems AF-210-NA)”, the Counts in [1] amounted to 11600; in test [2] it was 33000; in test [3] it was 80000; in test [4] it was 158000; in test [5], 8.87e+07; in test [7] it was 1.36e+07. Further, the SBR in test [1] turned out to be 730; in test [2], 2070; in test [3], 437; in test [4], 73; in test [5], 7.8; in test [6] it was 2.4. Moreover, the SBR in test [7] was found to be 1.2.

Turning to “affinity-purified polyclonal anti-VEGF antibody (R&D Systems AF-293-NA)”, in [8], the Counts stood at 516000 and the SBR stood at 8.7. In [9], this substance displayed a Counts of 90200 and an SBR of 1.5.
